Legend:
[1] = molecular target: T1, IL-23 (human, p19/p40 heterodimer) (Homo sapiens, UniProt Q9NPF7;P29460 SEQ:20-189,SEQ:23-328); test: filter; no binding; details: tags: R&D Systems, carrier free
Source text: The fraction aptamer bound vs. [IL-23] was used to calculate the KD by fitting the following equation to the data: Fraction aptamer bound=amplitude*([IL-23]/(KD+[IL-23]))+background binding.
Table 25 below summarizes the minimized sequences and the parent clone from which they were derived, and Table 26 summarizes the binding characterization from direct binding assays (+/−tRNA) and competition binding assays for the minimized constructs tested.

[2] = molecular target: T1, IL-23 (human, p19/p40 heterodimer); test: filter; 1X PBS, tRNA, ssDNA, BSA, 30 min RT; details: tags: R&D Systems, carrier free; label: 32P
[3] = molecular target: T2, IL-23 (mouse, p19/p40 heterodimer) (Mus musculus, UniProt Q9EQ14;P43432 SEQ:22-196,SEQ:23-335); test: cell_activity; TransAM STAT3; details: tags: isolated in-house
T2 sequence 1: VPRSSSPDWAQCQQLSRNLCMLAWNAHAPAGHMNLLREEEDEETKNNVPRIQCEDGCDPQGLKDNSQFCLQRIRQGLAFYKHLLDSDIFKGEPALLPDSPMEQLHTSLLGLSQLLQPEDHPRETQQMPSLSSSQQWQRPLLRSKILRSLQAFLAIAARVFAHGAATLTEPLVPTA
T2 sequence 2: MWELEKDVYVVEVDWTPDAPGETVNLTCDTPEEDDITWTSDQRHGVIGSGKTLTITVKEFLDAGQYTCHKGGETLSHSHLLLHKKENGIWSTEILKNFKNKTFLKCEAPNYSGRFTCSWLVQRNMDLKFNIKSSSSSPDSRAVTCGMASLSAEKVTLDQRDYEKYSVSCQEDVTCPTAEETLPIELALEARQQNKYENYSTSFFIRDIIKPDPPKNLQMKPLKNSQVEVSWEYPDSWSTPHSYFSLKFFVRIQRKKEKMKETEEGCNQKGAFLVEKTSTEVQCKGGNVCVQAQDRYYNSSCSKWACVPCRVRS
Experimental: In summary, the cell-based assay was conducted by isolating the peripheral blood mononuclear cells (PBMCs) from whole blood using a Histopaque gradient (Sigma, St. Louis, Mo.). The PBMCs were cultured for 3 to 5 days at 37° C./5% CO₂ in Peripheral Blood Medium (Sigma) which contains PHA, supplemented with IL-2 (100 units/mL) (R&D Systems, Minneapolis, Minn.), to generate PHA Blasts. To test IL-23 aptamers, the PHA Blasts were washed twice with 1×PBS, then serum starved for four hours in RPMI, 0.20% FBS. After serum starvation, approximately 2 million cells were aliquotted into appropriately labeled eppendorf tubes. hIL-23 at a final constant concentration of 3 ng/mL (R&D Systems, Minneapolis, Minn.) was combined with a dilution series of various IL-23 aptamers as described in Example 1, and the cytokine/aptamer mixture was added to the aliquotted cells in a final volume of 100 μl and incubated at 37° C. for 10-12 minutes. The incubation reaction was stopped by adding 1 mL of ice-cold PBS with 1.5 mM Na₃VO₄. Cell lysates were made using the lysis buffer provided by the TransAM™ STAT 3 assay following the manufacturer's instructions. FIG. 20 depicts a flow summary of the protocol used for the cell based assay.
The protocol used was identical to that previously described except mouse IL-23 was used to induce STAT 3 activation in PHA Blasts at a concentration of 30 ng/mL, instead of using human IL-23 at a concentration of 3 ng/mL.

[4] = molecular target: T1, IL-23 (human, p19/p40 heterodimer); test: cell_activity; Pathscan pSTAT3; details: tags: R&D Systems, carrier free
Experimental: Inhibition of IL-23-induced STAT3 phosphorylation was measured using the Pathscan® Phospho-STAT3 (Tyr705) Sandwich ELISA Kit (Cell Signaling Technology, Beverly, Mass.).
Similar to the TransAM™ Assay method previously described, the Pathscan® Phospho-STAT3 (Tyr705) Sandwich ELISA Kit detects endogenous levels of Phospho-STAT3 (Tyr705) protein by using a STAT3 rabbit monoclonal antibody which has been coated onto the wells of a 96-well plate. After incubation with cell lysates, both nonphospho- and phospho-STAT3 proteins are captured by the coated antibody. A phospho-STAT3 mouse monoclonal antibody is added to detect the captured phospho-STAT3 protein, and an HRP-linked anti-mouse antibody is then used to recognize the bound detection antibody. HRP substrate, TMB, is added to develop color, and the magnitude of optical density for this developed color is proportional to the quantity of phospho-STAT3 protein.
PHA Blasts were isolated and prepared as described above and treated with hIL-23 at a final constant concentration of 6 ng/mL (R&D Systems, Minneapolis, Minn.) to induce STAT3 activation, instead of using 3 ng/mL as previously described with the TransAM™ assay. Clones were screened by using a 6-point […] titration from 0 to 700 nM in 3 fold dilutions in combination with a constant IL-23 concentration of 6 ng/mL of IL-23 (R&D Systems, Minneapolis, Minn.) to induce STAT3 activation, instead of using 3 ng/mL as previously described with the TransAM™ assay. Lysates of treated cells were prepared using the buffers provided by the Pathscan kit, and the assay was run according to the manufacturer's instructions. IC₅₀s for the full length clones were calculated from the dose response curves.

[5] = molecular target: T1, IL-23 (human, p19/p40 heterodimer); test: filter; 1X SHMCK, 1 mM Mg, 1 mM Ca, 0.1 mg/mL tRNA, RT; details: tags: R&D Systems, carrier free; label: 5'-32P
Experimental: (§1) Monitoring Progress of rRfY Selection. Dot blot binding assays were performed throughout the selections to monitor the protein binding affinity of the pools. Trace ³²P-labeled RNA was combined with a dilution series of h-IL-23 and incubated at room temperature for 30 minutes in 1×SHMCK (20 mM Hepes, 120 mM NaCl, 5 mM KCl, 1 mM MgCl₂, 1 mM CaCl₂, pH 7.4) plus 0.1 mg/mL tRNA for a final volume of 20 μL. The binding reactions were analyzed by nitrocellulose filtration using a Minifold I dot-blot, 96-well vacuum filtration manifold (Schleicher & Schuell, Keene, N.H.). A three-layer filtration medium was used, consisting (from top to bottom) of Protran nitrocellulose (Schleicher & Schuell), Hybond-P nylon (Amersham Biosciences) and GB002 gel blot paper (Schleicher & Schuell). RNA that is bound to protein is captured on the nitrocellulose filter, whereas the non-protein bound RNA is captured on the nylon filter. The gel blot paper was included simply as a supporting medium for the other filters. Following filtration, the filter layers were separated, dried and exposed on a phosphor screen (Amersham Biosciences, Piscataway, N.J.) and quantified using a Storm 860 Phosphorimager® blot imaging system (Amersham Biosciences).
(§2) When a significant positive ratio of binding of RNA in the presence of h-IL-23 versus in the absence of h-IL-23 was seen, the pools were cloned using a TOPO TA cloning kit (Invitrogen, Carlsbad, Calif.) according to the manufacturer's instructions. For the h-IL-23 and X-IL-23 selections, the Round 8 pool templates were cloned, and 32 individual clones from each selections were assayed in a 1-point dot blot screen (+/−75 nM h-IL-23, as well as a separate screen at +/−75 nM h-IL-12). For the PN-IL-23 selection, the Round 10 pool was cloned and sequenced, and 8 unique clones were assayed for protein binding in a 1-point dot blot screen (+/−200 nM h-IL-23 and a separate screen at +/−200 nM h-IL-12). Subsequently, the Round 10 PN-IL-23 pool was re-cloned for further sequences, as well as the R12 PN-IL-23 pool, and the clones were assayed for protein binding in a 1 point do blot screen (+/−100 nM h-IL-23 or +/−200 nM h-IL-12).

[6] = molecular target: IL-12 (human, p35/p40 heterodimer) (Homo sapiens, UniProt P29459;P29460 SEQ:57-253,SEQ:23-328); test: filter; no significant binding; 1X SHMCK, 0.1 mg/mL tRNA; details: label: 5'-32P
IL-12 (human, p35/p40 heterodimer), sequence (P29459 23-219, chain 1 of 2): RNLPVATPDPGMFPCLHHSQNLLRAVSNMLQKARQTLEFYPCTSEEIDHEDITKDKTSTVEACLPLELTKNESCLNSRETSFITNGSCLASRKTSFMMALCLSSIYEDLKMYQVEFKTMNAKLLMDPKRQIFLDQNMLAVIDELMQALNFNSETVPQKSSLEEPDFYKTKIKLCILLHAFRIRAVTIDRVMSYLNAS
IL-12 (human, p35/p40 heterodimer), sequence (P29460 23-328, chain 2 of 2): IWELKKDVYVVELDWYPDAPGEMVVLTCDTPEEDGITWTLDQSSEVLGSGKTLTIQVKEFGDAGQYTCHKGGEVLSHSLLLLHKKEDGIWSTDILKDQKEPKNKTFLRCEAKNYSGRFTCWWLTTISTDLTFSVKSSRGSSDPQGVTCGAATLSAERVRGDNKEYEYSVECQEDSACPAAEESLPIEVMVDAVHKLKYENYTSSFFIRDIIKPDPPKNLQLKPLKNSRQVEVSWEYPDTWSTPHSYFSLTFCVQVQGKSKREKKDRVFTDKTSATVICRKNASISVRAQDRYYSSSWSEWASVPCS
Experimental: as §1, §2

T1 sequence (Q9NPF7 20-189, chain 1 of 2): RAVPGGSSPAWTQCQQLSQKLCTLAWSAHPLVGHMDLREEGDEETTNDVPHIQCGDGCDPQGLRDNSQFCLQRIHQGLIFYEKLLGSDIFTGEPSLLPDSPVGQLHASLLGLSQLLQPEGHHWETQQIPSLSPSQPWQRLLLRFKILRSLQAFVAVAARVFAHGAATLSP
T1 sequence (P29460 23-328, chain 2 of 2): as the sequence (P29460 23-328, chain 2 of 2) above

Binder: GGCAAGGUAAUUGGGAAGUGUGGGCUGGG (mixed, 2'-deoxy A and G, 2'-OMe C and U (dRmY)) [ARC894]
- binding result ([1]; label: 5'-32P): no binding

B1: dRmY clone SEQ 95 (mixed)
RNA: GGGAGAGGAGAGAACGUUCUACGGGCUACGGGGAUGGAGGGUGGGUCCCAGACGCUGUCGAUCGAUCGAUCGAUG
modifications: 2'-deoxy A and G, 2'-OMe C and U (dRmY)
- Kd [2]: 433 nM

B2: ARC1632 (ssRNA)
RNA: GGAGCGCACUCAGCCACCGGCUUAAUAUCCAAUAGGAACGUUCGCUCUGAGCAGGCGUUUCGACCUCUCUGCUAGC
modifications: 2'-F C,U
- IC50 [3]: 18 nM

B3: ARC1628 (ssRNA)
RNA: GGAGCGCACUCAGCCACAGGUGGCUUAAUACUGUAAAGACGUGCGCGCAGAGGGAUUUUCGACCUCUCUGCUAGC
modifications: 2'-F C,U
- IC50 [3]: 37 nM

Binder: GGCGGUUACGGGGGAUGCGGGUGGG (mixed, 2'-deoxy A and G, 2'-OMe C and U (dRmY)) [ARC981]
- binding result ([1]; label: 5'-32P): no binding

B4: ARC1633 (ssRNA)
RNA: GGAGCGCACUCAGCCACAGCUCGGUGGCUUAAUAUCUAUGUGAACGUGCGCAACAGCUUUCGACCUCUCUGCUAGC
modifications: 2'-F C,U
- IC50 [3]: 31 nM

B5: ARC1634 (ssRNA)
RNA: GGAGCGCACUCAGCCACCUUGGGCUUAAUACCUAUCGGAUGUGCGCCUAGCACGGAAUUUCGACCUCUCUGCUAGC
modifications: 2'-F C,U
- IC50 [3]: 9 nM

B6: ARC1625 (mixed)
RNA: ACAGGCAAGUAAUUGGGGAGUGCGGGCGGGGUGU
modifications: 2'-OMe C,U and G16,G17,G24,G25,G30,G31; other A,G deoxy; PS 32-33; 3'-idT [2'-OMe C2,C6,U10,U13,U14,G16,G17,U21,C23,G24,G25,C27,G30,G31,U32,U34; other A,G deoxy; PS 32-33 (N = PS linkage, left out); 3'-inverted dT 35]
- IC50 [4]: 4 nM

B7: dRmY clone SEQ 96 (mixed)
RNA: GGGAGAGGAGAGAACGUUCUACACGGGGUGGGAGGGGCGAGUCGCAUGGAUGCGCUGUCGAUCGAUCGAUCGAUG
modifications: 2'-deoxy A and G, 2'-OMe C and U (dRmY)
- Kd [2]: 210 nM

Binder: ACAGGCAAGGUAAUUGGGUAGUGAGGGCUGGGUGU (mixed, deoxy A,G; 2'-OMe C,U) [ARC896]
- binding result [1]: no binding

B8: dRmY clone SEQ 93 (mixed)
RNA: GGGAGAGGAGAGAACGUUCUACGUAACGGGGUGGGAGGGGCGAACAACUUGACGCUGUCGAUCGAUCGAUCGAUG
modifications: 2'-deoxy A and G, 2'-OMe C and U (dRmY)
- Kd [2]: 186 nM

Binder: GGGCACUCAGCCACAGCUCGGUGGCUUAAUAUCUAUGUGAACGUGCCC (ssRNA, 2'-F C,U) [ARC1633 minimer]
- IC50 [3]: 7 nM

Binder: GGCGGUACGGGGGGAGUGGGCUGGG (mixed, deoxy A,G; 2'-OMe C,U) [ARC1170]
- binding result [1]: no binding

Binder: GGGCACUCAGCCACAGGUGGCUUAAUACUGUAAAGACGUGCCC (ssRNA, 2'-F C,U) [ARC1739 (ARC1628 minimer)]
- IC50 [3]: 18 nM

Binder: GGCGGUACGGGGAGUGUGGGUUGGG (mixed, deoxy A,G; 2'-OMe C,U) [ARC1171]
- binding result [1]: no binding

B9: AMX86-D6 (ssRNA)
RNA: GGGAAAAGCGAAUCAUACACAAGAUUAGGCGUCGUGACAAUAACUGGUCCACGAGCAUGUCAGUGCUCCGCCAGAGACCAACCGAGAA
modifications: 2'-F all C and U (rRfY)
- Kd [5]: 25 nM
- binding result [6]: no binding

B10: AMX84-A10 (ssRNA)
RNA: GGGAAAAGCGAAUCAUACACAAGAAGUUUUUUGUGCUCUGAGUACUCAGCGUCCGUAAGGGAUAUGCUCCGCCAGAGACCAACCGAGAA
modifications: 2'-F all C and U (rRfY)
- Kd [5]: 22.3 nM
- binding result [6]: no binding

B11: AMX86-D5 (ssRNA)
RNA: GGGAAAAGCGAAUCAUACACAAGAGAGGUAUGUGGUUUUGCGGAGCAACUCGUGUCAGCGGUCAGCUCCGCCAGAGACCAACCGAGAA
modifications: 2'-F all C and U (rRfY)
- Kd [5]: 27.4 nM
- binding result [6]: no binding

B12: AMX84-F11 (ssRNA)
RNA: GGGAAAAGCGAAUCAUACACAAGAUGUGCUUGAGUUAAAUCUCAUCGUCCCCGUUUGGGGAUAUGCUCCGCCAGAGACCAACCGAGAA
modifications: 2'-F all C and U (rRfY)
- Kd [5]: 16.6 nM
- binding result [6]: no binding

B13: AMX84-B10 (ssRNA)
RNA: GGGAAAAGCGAAUCAUACACAAGAAGUGCUUCAUGCGGCAAACUGCAUGACGUCGAAUAGAUAUGCUCCGCCAGAGACCAACCGAGAA
modifications: 2'-F all C and U (rRfY)
- Kd [5]: 21.8 nM
- binding result [6]: no binding

Binder: GGGCACUCAGCCACCUUGGGCUUAAUACCUAUCGGAUGUGCCC (ssRNA, 2'-F C,U) [ARC1634 minimer]
- IC50 [3]: 26 nM

Reference: patent US20060193821, “Aptamers to the human IL-12 cytokine family and their use as autoimmune disease therapeutics” (published 2006)
